Data on 3 compounds can be found in paper PMC9864903, “Imaging of the Glucose-Dependent Insulinotropic Polypeptide Receptor Using a Novel Radiolabeled Peptide Rationally Designed Based on Endogenous GIP and Synthetic Exendin-4 Sequences” (Pharmaceuticals, 2022).

“Also recorded” adds a separate entry of the source.

A short description of data set [1]: chemical stability of Ga-C803-GIP at ambient temperature and pH 4.5. Format: physicochemical. The conditions noted are these: for at least one week at ambient temperature and pH 4.5. From the text:
C803-GIP has a sequence partially similar to that of hGIP(1-30), wherein L-Alanine at position 2 was exchanged to D-Alanine, Methionine at position 14 was exchanged to Leucine, Aspartic acid at position 21 was exchanged to Glutamic acid, Valine at position 23 was exchanged to Isoleucine, Asparagine at position 24 was exchanged to Glutamic acid, Leucine at position 27 was exchanged to Lysine, and both Glutamine at position 29 and Lysine at position 30 were exchanged to Glycine. The sequence was amended with Histidine (31), Proline (32), and seven more residues corresponding to those found in exendin-4 (Serine(33)-Glycine(34)-Alanine(35)-Proline(36)-Proline(37)-Proline(38)-Serine(39)). The peptide sequence was conjugated via terminal Serine(39) to a DOTA chelator moiety functionalized with a vinyl sulfone linker and cysteine amide (Table 1). C803-GIP was loaded with stable isotopes of gallium to yield Ga-C803-GIP for the subsequent investigation of the stability and biological activity. Ga-C803-GIP was stable with a purity of over 95% for at least one week at ambient temperature and pH 4.5.

The nature of data set [2]: pharmacokinetics in rats after subcutaneous administration. Format: in vivo. The conditions noted are these: rat. From the text:
The potency of the peptide conjugate in terms of EC50 was studied using C803-GIP and C803-GIP loaded with a stable isotope of gallium (Ga-C803-GIP) in HEK293 cells transfected with the GIPR from human, monkey (NHP), and rat species. In addition, the cross-reactivity was studied in HEK293 cells transfected with the GLP1-R and GCGR. […] In contrast, the EC50 for the rat GIPR was one order of magnitude poorer. […] The pharmacokinetic properties were investigated in vivo in rats. […] The average plasma concentration calculated to the infinity (AUCinf) was 1370 h*ng/mL.
Figure 1 Plasma concentration of Ga-C803-GIP measured at 3, 6, 9.6, 19.8, 30, 60, 120, and 240 min post subcutaneous administration in rats (n = 3). The error bars are not seen due to the low SD values.

Data set [3] in a line: dynamic PET/CT organ distribution in pig. The class given is in vivo. The note with it: infusion of GIP(1-42) 20 pmol/kg/min. The source says: An anesthetized pig (25 kg) was positioned to include the abdomen with pancreas in the center of the 25 cm axial field of view of a Discovery MI PET/CT scanner (GE Healthcare, MI, USA) by assistance of a low-dose CT scout view (140 kV, 10 mAs). The details of the animal handling, preparation, and anesthesia have been previously described.
Attenuation correction was acquired by a 140 kV, 10–80 mA CT examination. The administration of [^68Ga]Ga-C803-GIP (17.3 MBq, corresponding to approximately 2.5 μg peptide or 0.10 μg/kg) was made upon the start of the baseline dynamic scan lasting for 90 min (30 frames; […]). The dynamic scan was followed by a static scan over the brain from 90–120 min post administration. A second PET investigation was performed after an additional 2 h to allow the radioactivity from the first scan to fade from the circulation by decay and excretion.
The GIP(1-42) infusion was continued until the end of the PET scan. Finally, after the last PET scan, a contrast-enhanced CT scan was performed to assist delineation of the tissues, e.g., the pancreas.
Segmentation of the tissues of interest (descending aorta, pancreas, spleen, kidney, liver, and muscle) was performed in PMOD (PMOD Technologies), and time–activity curves were expressed as SUV as detailed above.

The subject of data set [4] is GIPR. The conditions noted are these: affinity for the GIPR; cited from earlier work. From the text: This effect may be due to the exchange of Aib(2) to A(2), L(10) to Y(10), R(16) to K(16), E(20) to Q(20), L(27) to K(27), K(31) to H(31), and the addition of the C-terminal tail ((32-39); […]). [^68Ga]Ga-C803-GIP was furthermore evaluated for its affinity, internalization, and binding specificity towards the GIPR.

As a reminder, the half-life is the time needed for the level to fall by half in the phase considered. Low readings indicate rapid decline, high ones slow decline. As to `CC[C@H](C)[C@H](NC(=O)[C@H](CO)NC(=O)[C@H](Cc1ccc(O)cc1)NC(=O)[C@H](CC(=O)O)NC(=O)[C@H](CO)NC(=O)[C@@H](NC(=O)[C@H](Cc1ccccc1)NC(=O)[C@@H](NC(=O)CNC(=O)[C@H](CCC(=O)O)NC(=O)[C@@H](C)NC(=O)[C@@H](N)Cc1ccc(O)cc1)[C@@H](C)O)[C@@H](C)CC)C(=O)N[C@@H](C)C(=O)N[C@@H](CC(C)C)C(=O)N[C@@H](CC(=O)O)C(=O)N[C@@H](CCCCN)C(=O)N[C@H](C(=O)N[C@@H](Cc1c[nH]cn1)C(=O)N[C@@H](CCC(N)=O)C(=O)N[C@@H](CCC(N)=O)C(=O)N[C@@H](CCC(=O)O)C(=O)N[C@@H](Cc1ccccc1)C(=O)N[C@H](C(=O)N[C@@H](CCC(=O)O)C(=O)N[C@@H](Cc1c[nH]c2ccccc12)C(=O)N[C@@H](CC(C)C)C(=O)N[C@@H](CCCCN)C(=O)N[C@@H](C)C(=O)NCC(=O)NCC(=O)N[C@@H](Cc1c[nH]cn1)C(=O)N1CCC[C@H]1C(=O)N[C@@H](CO)C(=O)NCC(=O)N[C@@H](C)C(=O)N1CCC[C@H]1C(=O)N1CCC[C@H]1C(=O)N1CCC[C@H]1C(=O)N[C@@H](CO)C(=O)N[C@@H](CSCCS(=O)(=O)CCN1CCN(CC(=O)O)CCN(CC(=O)O)CCN(CC(=O)O)CC1)C(N)=O)[C@@H](C)CC)[C@@H](C)CC` [Ga-C803-GIP], the “purity on storage (stability)” value in data set [1] was “over 95%”. The half-life in data set [2] (plasma, sc, 1 mg/kg, n = 3) was 22.8 min. For the same compound, in data set [2] (1 mg/kg, n = 3), the AUCinf was 1370 ng·h/mL and the “plasma clearance (CL)” value was determined as 12.2 mL/min/kg. Further, the “plasma concentration at the 240 min time point” value in data set [2] (n = 3, 240 min post administration) is on record as “below the limit of detection”.
For the compound “YAEGTFISDYSIAMDKIHQQDFVNWLLAQKGKKNDWKHNITQ [GIP(1-42), reference compound]”, the “effect of GIP(1-42) on uptake of [68Ga]Ga-C803-GIP in tissues” value in data set [3] is recorded as “did not reduce the uptake; also recorded: did not affect the uptake pattern”.
The IC50 is the concentration that inhibits the measured activity by half. For [Lys37(111In-DTPA)]N-acetyl-GIP1-42, the concentration for half-maximal inhibition (IC50) in data set [4] is 4.8 µM.
